What was measured:
[1] = target: HIV-1 Vif (virion infectivity factor)
[2] = target: wild-type HIV-1 Gag expressed from the hGag plasmid
[3] = target: Gag of HIV-1 BH10 expressed from BH10.P-.Vif- or BH10.FS-.Vif- proviral DNA, P03347
[4] = target: mutant Gag of ZWt-p6.Vif-, in which the nucleocapsid sequence has been replaced with a yeast leucine zipper domain

B1: HA-tagged APOBEC3G deletion mutant Δ157-384 (protein)
chain: MKPHFRNTVERMYRDTFSYNFYNRPILSRRNTVWLCYEVKTKGPSRPPLDAKIFRGQVYSELKYHPEMRFFHWFSKWRKLHRDQEYEVTWYISWSPCTKCTRDMATFLAEDPKVTLTIFVARLYYFWDPDYQEALRSLCQKRDGPRATMKIMNYDE
- cytoplasmic expression of full-length hA3G in the presence of Vif (Western blot with anti-HA) [1]: an increase in the cytoplasmic expression of full-length hA3G was detected with an increase in expression of hA3G 1-156 or hA3G 157-384, respectively
- incorporation into Gag VLPs (APOBEC3G:Gag ratio, Western blot) [2]: deletion of the N-terminal 104 amino acids or the C-terminal 157-384 amino acids (See SEQ ID NO: 21) does not affect the ability of APOBEC3G to be packaged into Gag VLPs
- viral content relative to wild type APOBEC3G (Gag VLPs, Western blot) [2]: the viral content of these N-terminal fragments is >60% of wild type APOBEC3G

B2: HA-tagged APOBEC3G deletion mutant Δ246-384 (protein)
chain: MKPHFRNTVERMYRDTFSYNFYNRPILSRRNTVWLCYEVKTKGPSRPPLDAKIFRGQVYSELKYHPEMRFFHWFSKWRKLHRDQEYEVTWYISWSPCTKCTRDMATFLAEDPKVTLTIFVARLYYFWDPDYQEALRSLCQKRDGPRATMKIMNYDEFQHCWSKFVYSQRELFEPWNNLPKYYILLHIMLGEILRHSMDPPTFTFNFNNEPWVRGRHETYLCYEVERMHNDTWVLLNQRRGFLCNQ
- viral content relative to wild type APOBEC3G (Gag VLPs, Western blot) [2]: the viral content of these N-terminal fragments is >60% of wild type APOBEC3G

B3: HA-tagged APOBEC3G deletion mutant Δ1-156 (protein)
chain: MFQHCWSKFVYSQRELFEPWNNLPKYYILLHIMLGEILRHSMDPPTFTFNFNNEPWVRGRHETYLCYEVERMHNDTWVLLNQRRGFLCNQAPHKHGFLEGRHAELCFLDVIPFWKLDLDQDYRVTCFTSWSPCFSCAQEMAKFISKNKHVSLCIFTARIYDDQGRCQEGLRTLAEAGAKISIMTYSEFKHCWDTFVDHQGCPFQPWDGLDEHSQDLSGRLRAILQNQEN
- reduction in the ability to be degraded by Vif (ratio of expression with and without Vif, Western blot) [1]: the deletion of the N-terminal 156 or C-terminal 157-384 amino acids results in 80% and 90% reduction in the ability of the resulting fragments to be degraded by Vif, respectively
- incorporation into Gag VLPs (APOBEC3G:Gag ratio, Western blot) [2]: the deletion of the N-terminal 156 amino acids abolishes its incorporation into viruses

B4: HA-tagged APOBEC3G deletion mutant Δ1-104 (protein)
chain: MATFLAEDPKVTLTIFVARLYYFWDPDYQEALRSLCQKRDGPRATMKIMNYDEFQHCWSKFVYSQRELFEPWNNLPKYYILLHIMLGEILRHSMDPPTFTFNFNNEPWVRGRHETYLCYEVERMHNDTWVLLNQRRGFLCNQAPHKHGFLEGRHAELCFLDVIPFWKLDLDQDYRVTCFTSWSPCFSCAQEMAKFISKNKHVSLCIFTARIYDDQGRCQEGLRTLAEAGAKISIMTYSEFKHCWDTFVDHQGCPFQPWDGLDEHSQDLSGRLRAILQNQEN
- incorporation into Gag VLPs (APOBEC3G:Gag ratio, Western blot) [2]: deletion of the N-terminal 104 amino acids or the C-terminal 157-384 amino acids (See SEQ ID NO: 21) does not affect the ability of APOBEC3G to be packaged into Gag VLPs

B5: HA-tagged APOBEC3G deletion mutant Δ309-384 (protein)
chain: MKPHFRNTVERMYRDTFSYNFYNRPILSRRNTVWLCYEVKTKGPSRPPLDAKIFRGQVYSELKYHPEMRFFHWFSKWRKLHRDQEYEVTWYISWSPCTKCTRDMATFLAEDPKVTLTIFVARLYYFWDPDYQEALRSLCQKRDGPRATMKIMNYDEFQHCWSKFVYSQRELFEPWNNLPKYYILLHIMLGEILRHSMDPPTFTFNFNNEPWVRGRHETYLCYEVERMHNDTWVLLNQRRGFLCNQAPHKHGFLEGRHAELCFLDVIPFWKLDLDQDYRVTCFTSWSPCFSCAQEMAKFISKNKHVSLC
- viral content relative to wild type APOBEC3G (Gag VLPs, Western blot) [2]: the viral content of these N-terminal fragments is >60% of wild type APOBEC3G

B6: wild-type human APOBEC3G with a fused HA tag at the C-terminus (protein)
chain: MKPHFRNTVERMYRDTFSYNFYNRPILSRRNTVWLCYEVKTKGPSRPPLDAKIFRGQVYSELKYHPEMRFFHWFSKWRKLHRDQEYEVTWYISWSPCTKCTRDMATFLAEDPKVTLTIFVARLYYFWDPDYQEALRSLCQKRDGPRATMKIMNYDEFQHCWSKFVYSQRELFEPWNNLPKYYILLHIMLGEILRHSMDPPTFTFNFNNEPWVRGRHETYLCYEVERMHNDTWVLLNQRRGFLCNQAPHKHGFLEGRHAELCFLDVIPFWKLDLDQDYRVTCFTSWSPCFSCAQEMAKFISKNKHVSLCIFTARIYDDQGRCQEGLRTLAEAGAKISIMTYSEFKHCWDTFVDHQGCPFQPWDGLDEHSQDLSGRLRAILQNQEN
- ability of the viruses to package APOBEC3G (Western blots of viral lysates) [3]: BH10.FS-.Vif- can package APOBEC3G as efficiently as BH10.P-
- ability of the viruses to package APOBEC3G (Western blots of viral lysates) [4]: the ability of ZWt-p6.Vif- to incorporate APOBEC3G is reduced 90% compared with BH10.FS-.Vif-
- distribution of APOBEC3G between cytoplasm and membrane (sucrose floatation assay) [4]: the majority of APOBEC3G remains in the cytoplasm even though most Gag is found at membrane
- incorporation of APOBEC3G into Gag VLPs (Western blot of VLP lysates) [2]: Gag alone is sufficient among the viral proteins for facilitating APOBEC3G incorporation
- share of APOBEC3G in the membrane-bound fraction (sucrose floatation assay) [2]: in the presence of Gag (FIG. 5B), >90% of APOBEC3G is localized in the membrane-bound protein

— patent publication US20060002951
